Experimental findings from article PMC4359968 (Cancer research, 2015) are described below.

The assay addresses RAGE-Fc (human RAGE) (human, UniProt Q15109 23-342). In words: ELISA.

Sequence of RAGE-Fc (human RAGE) (Q15109 23-342): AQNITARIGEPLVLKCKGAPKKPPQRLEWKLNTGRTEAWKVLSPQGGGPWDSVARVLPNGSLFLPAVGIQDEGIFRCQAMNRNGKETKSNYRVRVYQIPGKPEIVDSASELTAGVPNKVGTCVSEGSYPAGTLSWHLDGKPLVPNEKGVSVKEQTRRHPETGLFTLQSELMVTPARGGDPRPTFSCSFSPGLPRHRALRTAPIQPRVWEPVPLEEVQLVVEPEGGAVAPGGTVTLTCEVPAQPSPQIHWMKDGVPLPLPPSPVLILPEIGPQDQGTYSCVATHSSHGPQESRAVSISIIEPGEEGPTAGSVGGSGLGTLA

B1: human recombinant S100A7 (ligand, UniProt P31151 1-101, looked up)
chain: MSNTQAERSIIGMIDMFHKYTRRDDKIEKPSLLTMMKENFPNFLSACDKKGTNYLADVFEKKDKNEDKKIDFSEFLSLLGDIATDYHKQSHGAAPCSGGSQ
B1: the binding result is given as “binds”.
